Results from patent US10253078 (ZEALAND PHARMA A S, dated 2019).
Starred links: 1 amine or outer side, 2 acyl side, 3 side chain; linkers in the order of their positions; H or OH if unused. Non-standard residues stand in square brackets, D forms with d. Groups on a side chain read outwards from the residue. *: point of attachment. C20 diacid = O=C(O)CCCCCCCCCCCCCCCCCCC(=O)*; γGlu = O=C(O)[C@H](CCC(=O)[*:2])N[*:1]; Palmitoyl = CCCCCCCCCCCCCCCC(=O)*; Aib = CC(C)(N)C(=O)O

B1: Compound 19 (peptide)
peptide: YAEGTFISDYSIELDKKAQRAFIEWLLAQGPSSGAPPPS
modifications: Aib at 2; Lys 17 side chain acylated: K((19-Carboxy-nonadecanoyl)-[(Piperazine-1-yl)-acetyl]-Peg3-Peg3); C-terminal amide (-NH2)
B2: Compound 1 (peptide)
peptide: H-Y[Aib]EGTFISDYSIELDKK([γGlu-Palmitoyl])HQQDFVNWLLAQGPSSGAPPPS-NH2
SMILES: CCCCCCCCCCCCCCCC(=O)N[C@@H](CCC(=O)NCCCC[C@H](NC(=O)[C@H](CCCCN)NC(=O)[C@H](CC(=O)O)NC(=O)[C@H](CC(C)C)NC(=O)[C@H](CCC(=O)O)NC(=O)[C@@H](NC(=O)[C@H](CO)NC(=O)[C@H](Cc1ccc(O)cc1)NC(=O)[C@H](CC(=O)O)NC(=O)[C@H](CO)NC(=O)[C@@H](NC(=O)[C@H](Cc1ccccc1)NC(=O)[C@@H](NC(=O)CNC(=O)[C@H](CCC(=O)O)NC(=O)C(C)(C)NC(=O)[C@@H](N)Cc1ccc(O)cc1)[C@@H](C)O)[C@@H](C)CC)[C@@H](C)CC)C(=O)N[C@@H](Cc1c[nH]cn1)C(=O)N[C@@H](CCC(N)=O)C(=O)N[C@@H](CCC(N)=O)C(=O)N[C@@H](CC(=O)O)C(=O)N[C@@H](Cc1ccccc1)C(=O)N[C@H](C(=O)N[C@@H](CC(N)=O)C(=O)N[C@@H](Cc1c[nH]c2ccccc12)C(=O)N[C@@H](CC(C)C)C(=O)N[C@@H](CC(C)C)C(=O)N[C@@H](C)C(=O)N[C@@H](CCC(N)=O)C(=O)NCC(=O)N1CCC[C@H]1C(=O)N[C@@H](CO)C(=O)N[C@@H](CO)C(=O)NCC(=O)N[C@@H](C)C(=O)N1CCC[C@H]1C(=O)N1CCC[C@H]1C(=O)N1CCC[C@H]1C(=O)N[C@@H](CO)C(N)=O)C(C)C)C(=O)O
B3: Compound 2 (peptide)
peptide: H-Y[Aib]EGTFISDYSIELDK([γGlu-Palmitoyl])IHQQDFVNWLLAQGPSSGAPPPS-NH2
SMILES: CCCCCCCCCCCCCCCC(=O)N[C@@H](CCC(=O)NCCCC[C@H](NC(=O)[C@H](CC(=O)O)NC(=O)[C@H](CC(C)C)NC(=O)[C@H](CCC(=O)O)NC(=O)[C@@H](NC(=O)[C@H](CO)NC(=O)[C@H](Cc1ccc(O)cc1)NC(=O)[C@H](CC(=O)O)NC(=O)[C@H](CO)NC(=O)[C@@H](NC(=O)[C@H](Cc1ccccc1)NC(=O)[C@@H](NC(=O)CNC(=O)[C@H](CCC(=O)O)NC(=O)C(C)(C)NC(=O)[C@@H](N)Cc1ccc(O)cc1)[C@@H](C)O)[C@@H](C)CC)[C@@H](C)CC)C(=O)N[C@H](C(=O)N[C@@H](Cc1c[nH]cn1)C(=O)N[C@@H](CCC(N)=O)C(=O)N[C@@H](CCC(N)=O)C(=O)N[C@@H](CC(=O)O)C(=O)N[C@@H](Cc1ccccc1)C(=O)N[C@H](C(=O)N[C@@H](CC(N)=O)C(=O)N[C@@H](Cc1c[nH]c2ccccc12)C(=O)N[C@@H](CC(C)C)C(=O)N[C@@H](CC(C)C)C(=O)N[C@@H](C)C(=O)N[C@@H](CCC(N)=O)C(=O)NCC(=O)N1CCC[C@H]1C(=O)N[C@@H](CO)C(=O)N[C@@H](CO)C(=O)NCC(=O)N[C@@H](C)C(=O)N1CCC[C@H]1C(=O)N1CCC[C@H]1C(=O)N1CCC[C@H]1C(=O)N[C@@H](CO)C(N)=O)C(C)C)[C@@H](C)CC)C(=O)O
B4: Compound 3 (peptide)
peptide: H-Y[Aib]EGTFISDYSIELEKK([γGlu-Palmitoyl])HQQDFVNWLLAQGPSSGAPPPS-NH2
SMILES: CCCCCCCCCCCCCCCC(=O)N[C@@H](CCC(=O)NCCCC[C@H](NC(=O)[C@H](CCCCN)NC(=O)[C@H](CCC(=O)O)NC(=O)[C@H](CC(C)C)NC(=O)[C@H](CCC(=O)O)NC(=O)[C@@H](NC(=O)[C@H](CO)NC(=O)[C@H](Cc1ccc(O)cc1)NC(=O)[C@H](CC(=O)O)NC(=O)[C@H](CO)NC(=O)[C@@H](NC(=O)[C@H](Cc1ccccc1)NC(=O)[C@@H](NC(=O)CNC(=O)[C@H](CCC(=O)O)NC(=O)C(C)(C)NC(=O)[C@@H](N)Cc1ccc(O)cc1)[C@@H](C)O)[C@@H](C)CC)[C@@H](C)CC)C(=O)N[C@@H](Cc1c[nH]cn1)C(=O)N[C@@H](CCC(N)=O)C(=O)N[C@@H](CCC(N)=O)C(=O)N[C@@H](CC(=O)O)C(=O)N[C@@H](Cc1ccccc1)C(=O)N[C@H](C(=O)N[C@@H](CC(N)=O)C(=O)N[C@@H](Cc1c[nH]c2ccccc12)C(=O)N[C@@H](CC(C)C)C(=O)N[C@@H](CC(C)C)C(=O)N[C@@H](C)C(=O)N[C@@H](CCC(N)=O)C(=O)NCC(=O)N1CCC[C@H]1C(=O)N[C@@H](CO)C(=O)N[C@@H](CO)C(=O)NCC(=O)N[C@@H](C)C(=O)N1CCC[C@H]1C(=O)N1CCC[C@H]1C(=O)N1CCC[C@H]1C(=O)N[C@@H](CO)C(N)=O)C(C)C)C(=O)O
B5: Compound 5 (peptide)
peptide: H-Y[Aib]EGTFISDYSIELDKIHQQDFVNWLLAQGPSSGAPPPSK([γGlu-Palmitoyl])-NH2
SMILES: CCCCCCCCCCCCCCCC(=O)N[C@@H](CCC(=O)NCCCC[C@H](NC(=O)[C@H](CO)NC(=O)[C@@H]1CCCN1C(=O)[C@@H]1CCCN1C(=O)[C@@H]1CCCN1C(=O)[C@H](C)NC(=O)CNC(=O)[C@H](CO)NC(=O)[C@H](CO)NC(=O)[C@@H]1CCCN1C(=O)CNC(=O)[C@H](CCC(N)=O)NC(=O)[C@H](C)NC(=O)[C@H](CC(C)C)NC(=O)[C@H](CC(C)C)NC(=O)[C@H](Cc1c[nH]c2ccccc12)NC(=O)[C@H](CC(N)=O)NC(=O)[C@@H](NC(=O)[C@H](Cc1ccccc1)NC(=O)[C@H](CC(=O)O)NC(=O)[C@H](CCC(N)=O)NC(=O)[C@H](CCC(N)=O)NC(=O)[C@H](Cc1c[nH]cn1)NC(=O)[C@@H](NC(=O)[C@H](CCCCN)NC(=O)[C@H](CC(=O)O)NC(=O)[C@H](CC(C)C)NC(=O)[C@H](CCC(=O)O)NC(=O)[C@@H](NC(=O)[C@H](CO)NC(=O)[C@H](Cc1ccc(O)cc1)NC(=O)[C@H](CC(=O)O)NC(=O)[C@H](CO)NC(=O)[C@@H](NC(=O)[C@H](Cc1ccccc1)NC(=O)[C@@H](NC(=O)CNC(=O)[C@H](CCC(=O)O)NC(=O)C(C)(C)NC(=O)[C@@H](N)Cc1ccc(O)cc1)[C@@H](C)O)[C@@H](C)CC)[C@@H](C)CC)[C@@H](C)CC)C(C)C)C(N)=O)C(=O)O
B6: Compound 6 (peptide)
peptide: H-Y[Aib]EGTFISDYSIELDKIHQQDFVNWLLAQK([γGlu-Palmitoyl])-NH2
SMILES: CCCCCCCCCCCCCCCC(=O)N[C@@H](CCC(=O)NCCCC[C@H](NC(=O)[C@H](CCC(N)=O)NC(=O)[C@H](C)NC(=O)[C@H](CC(C)C)NC(=O)[C@H](CC(C)C)NC(=O)[C@H](Cc1c[nH]c2ccccc12)NC(=O)[C@H](CC(N)=O)NC(=O)[C@@H](NC(=O)[C@H](Cc1ccccc1)NC(=O)[C@H](CC(=O)O)NC(=O)[C@H](CCC(N)=O)NC(=O)[C@H](CCC(N)=O)NC(=O)[C@H](Cc1c[nH]cn1)NC(=O)[C@@H](NC(=O)[C@H](CCCCN)NC(=O)[C@H](CC(=O)O)NC(=O)[C@H](CC(C)C)NC(=O)[C@H](CCC(=O)O)NC(=O)[C@@H](NC(=O)[C@H](CO)NC(=O)[C@H](Cc1ccc(O)cc1)NC(=O)[C@H](CC(=O)O)NC(=O)[C@H](CO)NC(=O)[C@@H](NC(=O)[C@H](Cc1ccccc1)NC(=O)[C@@H](NC(=O)CNC(=O)[C@H](CCC(=O)O)NC(=O)C(C)(C)NC(=O)[C@@H](N)Cc1ccc(O)cc1)[C@@H](C)O)[C@@H](C)CC)[C@@H](C)CC)[C@@H](C)CC)C(C)C)C(N)=O)C(=O)O
B7: Compound 7 (peptide)
peptide: H-Y[Aib]EGTFISDYSIELDKIHQQDFVNWLLAQKGK([γGlu-Palmitoyl])-NH2
SMILES: CCCCCCCCCCCCCCCC(=O)N[C@@H](CCC(=O)NCCCC[C@H](NC(=O)CNC(=O)[C@H](CCCCN)NC(=O)[C@H](CCC(N)=O)NC(=O)[C@H](C)NC(=O)[C@H](CC(C)C)NC(=O)[C@H](CC(C)C)NC(=O)[C@H](Cc1c[nH]c2ccccc12)NC(=O)[C@H](CC(N)=O)NC(=O)[C@@H](NC(=O)[C@H](Cc1ccccc1)NC(=O)[C@H](CC(=O)O)NC(=O)[C@H](CCC(N)=O)NC(=O)[C@H](CCC(N)=O)NC(=O)[C@H](Cc1c[nH]cn1)NC(=O)[C@@H](NC(=O)[C@H](CCCCN)NC(=O)[C@H](CC(=O)O)NC(=O)[C@H](CC(C)C)NC(=O)[C@H](CCC(=O)O)NC(=O)[C@@H](NC(=O)[C@H](CO)NC(=O)[C@H](Cc1ccc(O)cc1)NC(=O)[C@H](CC(=O)O)NC(=O)[C@H](CO)NC(=O)[C@@H](NC(=O)[C@H](Cc1ccccc1)NC(=O)[C@@H](NC(=O)CNC(=O)[C@H](CCC(=O)O)NC(=O)C(C)(C)NC(=O)[C@@H](N)Cc1ccc(O)cc1)[C@@H](C)O)[C@@H](C)CC)[C@@H](C)CC)[C@@H](C)CC)C(C)C)C(N)=O)C(=O)O

Target: human GLP-1 receptor (human, UniProt P43220 24-463)
Assay: cell-based or functional assay

Question: H-Y[Aib]EGTFISDYSIELDKK([Peg3-Peg3-γGlu-C20 diacid])HQQDFVNWLLAQGPSSGAPPPS-NH2 [Compound 9] was tested. Which “EC50 hGLP1 R (cAMP, HEK293 cells expressing the GLP-1R)” value did it give?
Answer: > 3 nM

Question: For B1, which “EC50 hGLP1 R (cAMP, HEK293 cells expressing the GLP-1R)” value is on record?
Answer: > 3 nM

Target: T1, human GIP receptor (human, UniProt P48546 22-466)
T1 sequence (looked up): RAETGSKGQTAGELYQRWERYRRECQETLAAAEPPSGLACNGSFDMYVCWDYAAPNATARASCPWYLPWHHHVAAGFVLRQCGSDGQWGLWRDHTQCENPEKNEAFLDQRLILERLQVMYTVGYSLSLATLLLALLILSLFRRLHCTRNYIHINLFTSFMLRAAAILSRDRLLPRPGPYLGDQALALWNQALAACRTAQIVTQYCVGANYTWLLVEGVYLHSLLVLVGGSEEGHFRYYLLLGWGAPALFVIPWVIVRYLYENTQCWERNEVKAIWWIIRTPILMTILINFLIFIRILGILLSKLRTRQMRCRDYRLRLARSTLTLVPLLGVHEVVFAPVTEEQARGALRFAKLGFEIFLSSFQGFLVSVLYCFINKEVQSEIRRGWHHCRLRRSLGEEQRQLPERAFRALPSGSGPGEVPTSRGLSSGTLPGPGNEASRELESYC
Assay: cell-based or functional assay

Question: H-Y[Aib]EGTFISDYSIELDKK([Peg3-Peg3-γGlu-C20 diacid])HQQDFVNWLLAQGPSSGAPPPS-NH2 [Compound 9] was tested. Which “EC50 hGIP R (cAMP, HEK293 cells expressing the GIP R)” value (shortened to “EC50 hGIP R”) did it give?
Answer: 0.009 nM

Question: For B1, which “EC50 hGIP R” value is on record?
Answer: 0.005 nM

Question: Which “EC50 hGIP R” value does the source give for B2 here?
Answer: 0.003 nM

Question: How did the “EC50 hGIP R” value turn out when B3 was run?
Answer: 0.008 nM

Question: With B4 as the binder, how does the “EC50 hGIP R” value read?
Answer: 0.014 nM

Question: For H-Y[Aib]EGTFISDYSIELDKIHQQDFVNWLLAQGPSSGAPPPSK([Peg3-Peg3-γGlu-C20 diacid])-NH2 [Compound 4], which “EC50 hGIP R” value is on record?
Answer: 0.014 nM

Question: With B5 as the binder, how does the “EC50 hGIP R” value read?
Answer: 0.014 nM

Question: With B6 as the binder, how does the “EC50 hGIP R” value read?
Answer: 0.014 nM

Question: How did the “EC50 hGIP R” value turn out when B7 was run?
Answer: 0.032 nM

Target: T1, human GIP receptor
Assay: cell-based or functional assay
Remark: another data set of the same source

Question: H-Y[Aib]EGTFISDYSIELDKK([Peg3-Peg3-γGlu-C20 diacid])HQQDFVNWLLAQGPSSGAPPPS-NH2 [Compound 9] was tested. Which “EC50, hGIP-R level of cAMP (HEK293 cells expressing human GIP R)” value (shortened to “EC50, hGIP-R level of cAMP”) did it give?
Answer: 0.008 nM

Question: Which “EC50, hGIP-R level of cAMP” value does the source give for B1 here?
Answer: 0.006 nM

Question: For B2, which “EC50, hGIP-R level of cAMP” value is on record?
Answer: 0.008 nM

Question: With B3 as the binder, how does the “EC50, hGIP-R level of cAMP” value read?
Answer: 0.013 nM

Question: With B4 as the binder, how does the “EC50, hGIP-R level of cAMP” value read?
Answer: 0.014 nM

Question: For H-Y[Aib]EGTFISDYSIELDKIHQQDFVNWLLAQGPSSGAPPPSK([Peg3-Peg3-γGlu-C20 diacid])-NH2 [Compound 4], which “EC50, hGIP-R level of cAMP” value is on record?
Answer: 0.013 nM

Question: How did the “EC50, hGIP-R level of cAMP” value turn out when B5 was run?
Answer: 0.014 nM

Question: Which “EC50, hGIP-R level of cAMP” value does the source give for B6 here?
Answer: 0.032 nM

Question: For B7, which “EC50, hGIP-R level of cAMP” value is on record?
Answer: 0.018 nM
